From patent US20150065420A1 (EXTEND BIOSCIENCES, published 2015)

Target: GHS-R (ghrelin receptor) expressed on CHO-K1 cells
Assay: cell-based or functional assay

Sequence of GHS-R (ghrelin receptor) expressed on CHO-K1 cells (Q92847 whole entry): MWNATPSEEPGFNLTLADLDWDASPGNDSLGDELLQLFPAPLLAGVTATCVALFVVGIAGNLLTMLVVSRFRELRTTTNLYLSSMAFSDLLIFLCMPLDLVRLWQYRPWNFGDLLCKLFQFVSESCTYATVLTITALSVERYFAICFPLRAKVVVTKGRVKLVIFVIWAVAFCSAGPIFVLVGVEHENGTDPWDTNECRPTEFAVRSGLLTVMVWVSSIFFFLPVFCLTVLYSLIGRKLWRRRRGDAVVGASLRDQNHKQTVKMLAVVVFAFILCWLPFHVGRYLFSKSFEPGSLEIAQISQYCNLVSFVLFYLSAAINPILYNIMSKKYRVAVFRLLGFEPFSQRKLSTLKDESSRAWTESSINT

EC50 of intracellular calcium flux (FLIPR, % activation) in GHS-R-expressing CHO-K1 cells: 85 nM
B1: Vitamin D3-PEG-maleimide carrier-conjugated ghrelin from Example 3 (peptide)
peptide: GSSFLSPEHQKAQQRKESKKPPAKLQPRC
modifications: n-octanoyl on Ser 3; added C-terminal Cys conjugated through its thiol to the Vitamin D3-PEG(2 kDa)-maleimide carrier of Example 1
